The text below walks through data of US20160257711A1 (BOARD OF TRUSTEES OF THE UNIVERSITY OF ILLINOIS, published 2016).

The target in the assay is T1, integrin αIIbβ3 of human platelets (human, UniProt P08514 32-1039).
T1 construct: whole, on cells; Endogenous receptor; also called integrin β3; glycoprotein IIb-IIIa
In words: co-IP from platelet lysates and GST pull-downs.

B1: Gα13 (G protein α subunit), endogenous protein of human platelets (other)
chain: MADFLPSRSVLSVCFPGCLLTSGEAEQQRKSKEIDKCLSREKTYVKRLVKILLLGAGESGKSTFLKQMRIIHGQDFDQRAREEFRPTIYSNVIKGMRVLVDAREKLHIPWGDNSNQQHGDKMMSFDTRAPMAAQGMVETRVFLQYLPAIRALWADSGIQNAYDRRREFQLGESVKYFLDNLDKLGEPDYIPSQQDILLARRPTKGIHEYDFEIKNVPFKMVDVGGQRSERKRWFECFDSVTSILFLVSSSEFDQVLMEDRLTNRLTESLNIFETIVNNRVFSNVSIILFLNKTDLLEEKVQIVSIKDYFLEFEGDPHCLRDVQKFLVECFRNKRRDQQQKPLYHHFTTAINTENIRLVFRDVKDTILHDNLKQLMLQ
notes: Endogenous Gα13 in detergent lysates of washed human platelets, precipitated or detected with anti-Gα13 antibody; also called G protein subunit Gα13
For B1, the binding result is reported as “binds”.
